From patent publication US20220281998A1 (AZUSAPHARMA SCIENCES, published 2022)

Tests used:
[1] = molecular target: human EGFR on human cancer cell lines (HCT116, A-431, NCI-H1975, HT-29, RKO) (human, UniProt P00533 25-1210); assay: cell-based or functional assay
[2] = molecular target: T1, recombinant biotinylated HER2 (manufactured by ACROBiosystems) (human, UniProt P04626 23-652, biotinylated (site not stated)); assay: sandwich ELISA: immobilised human CD3E/CD3D heterodimer, BsAb, detection with biotinylated HER2
T1 construct: also called human HER2

[3] = molecular target: T2, human CD3E/CD3D heterodimer recombinant protein (manufactured by ACROBiosystems) (human, UniProt P07766 23-126; P04234 22-105); assay: ELISA, immobilised human CD3E/CD3D heterodimer, 10-1000 ng/mL BsAb, absorbance rose with concentration
T2 construct: Bought reagent, immobilised on ELISA plates
T2 sequence (P07766 23-126 limits assumed, chain 1 of 2): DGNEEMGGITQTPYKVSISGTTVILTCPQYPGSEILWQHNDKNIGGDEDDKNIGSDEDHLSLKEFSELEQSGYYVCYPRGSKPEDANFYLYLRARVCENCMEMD
T2 sequence (P04234 22-105 limits assumed, chain 2 of 2): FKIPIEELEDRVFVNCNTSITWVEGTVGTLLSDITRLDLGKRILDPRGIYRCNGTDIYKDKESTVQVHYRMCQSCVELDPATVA

B1: LH31 diabody-type BsAb (EGFR×CD3 diabody-type BsAb derived from DUM-31H strain) (bispecific antibody)
chain 1: ATLTPDIQMTQSPSSLSASVGDRVTITCRASQDIRNYLNWYQQKPGKAPKLLIYYTSRLESGVPSRFSGSGSGTDYTLTISSLQPEDFATYYCQQGNTLPWTFGQGTKVEIKAAGGGGSEVQLVESGGGLVQPGGSLRLSCAASGFTLSGDWIHWVRQAPGKGLEWLGEISAAGGYTDYADSVKGRFTISADTSKNTAYLQMNSLRAEDTAVYYCARESRVSFEAAMDYWGQGTLVTVSSAAAAEQKLISEEDLNLGGGMRGSHHHHHH
chain 2: ATLTPDIQMTQSPSSLSASVGDRVTITCRASQDLATDVAWYQQKPGKAPKLLIYSASFLYSGVPSRFSGSGSGTDFTLTISSLQPEDFATYYCQQSEPEPYTFGQGTKVEIKAAGGGGSEVQLVESGGGLVQPGGSLRLSCAASGYSFTGYTMNWVRQAPGKGLEWVALINPYKGVSTYNQKFKDRFTISVDKSKNTAYLQMNSLRAEDTAVYYCARSGYYGDSDWYFDVWGQGTLVTVSSAAAEQKLISEEDLNLGGGMRGSHHHHHH
notes: Heterodimer of polypeptides 1 and 2, secreted by Bifidobacterium longum 105-A carrying pLH31-L5, purified through the His tag; also called LH31 polypeptide 1 + LH31 polypeptide 2 with SP50-L5
- EC50: concentration that reduced the viability of HCT116 cells to 50% (T-LAK:HCT116 5:1, 24 h) [1]: 0.032 nM
- binding result [2]: no binding
- binding result [3]: binds
